According to PMC9169696 (ACS applied materials & interfaces, 2021):
Square brackets hold non-standard residues; d marks the D form. Ends that are not written are not given here.

B1: fluorescein-labeled Fet-A (natural protein, bovine, UniProt P12763 19-359, looked up)
chain: IPLDPVAGYKEPACDDPDTEQAALAAVDYINKHLPRGYKHTLNQIDSVKVWPRRPTGEVYDIEIDTLETTCHVLDPTPLANCSVRQQTQHAVEGDCDIHVLKQDGQFSVLFTKCDSSPDSAEDVRKLCPDCPLLAPLNDSRVVHAVEVALATFNAESNGSYLQLVEISRAQFVPLPVSVSVEFAVAATDCIAKEVVDPTKCNLLAEKQYGFCKGSVIQKALGGEDVRVTCTLFQTQPVIPQPQPDGAEAEAPSAVPDAAGPTPSAAGPPVASVVVGPSVVAVPLPLHRAHYDLRHTFSGVASVESSSGEAFHVGKTPIVGQPSIPGGPVRLCPGRIRYFKI
modifications: fluorescein (from NHS-fluorescein; sites not stated)
B2: fluorescein-labeled VN (natural protein, human, UniProt P04004 20-478, looked up)
chain: DQESCKGRCTEGFNVDKKCQCDELCSYYQSCCTDYTAECKPQVTRGDVFTMPEDEYTVYDDGEEKNNATVHEQVGGPSLTSDLQAQSKGNPEQTPVLKPEEEAPAPEVGASKPEGIDSRPETLHPGRPQPPAEEELCSGKPFDAFTDLKNGSLFAFRGQYCYELDEKAVRPGYPKLIRDVWGIEGPIDAAFTRINCQGKTYLFKGSQYWRFEDGVLDPDYPRNISDGFDGIPDNVDAALALPAHSYSGRERVYFFKGKQYWEYQFQHQPSQEECEGSSLSAVFEHFAMMQRDSWEDIFELLFWGRTSAGTRQPQFISRDWHGVPGQVDAAMAGRIYISGMAPRPSLAKKQRFRHRNRKGYRSQRGHSRGRNQNSRRPSRATWLSLFSSEESNLGANNYDDYRMDWLVPATCEPIQSVFFFSGDKYYRVNLRTRRVDTVDPPYPRSIAQYWLGCPAPGHL
modifications: fluorescein (from NHS-fluorescein; sites not stated)
B3: HLT2 peptide gel (peptide)
peptide: VLTKVKTKV[code p]PTKVEVKVLV-NH2

Experiments:
HLT2 peptide gel = target: B3; assay: depletion from the supernatant
bovine serum albumin = bovine serum albumin (bovine, UniProt P02769 25-607); assay: affinity purification with mass spectrometry
Chain of bovine serum albumin (P02769 25-607): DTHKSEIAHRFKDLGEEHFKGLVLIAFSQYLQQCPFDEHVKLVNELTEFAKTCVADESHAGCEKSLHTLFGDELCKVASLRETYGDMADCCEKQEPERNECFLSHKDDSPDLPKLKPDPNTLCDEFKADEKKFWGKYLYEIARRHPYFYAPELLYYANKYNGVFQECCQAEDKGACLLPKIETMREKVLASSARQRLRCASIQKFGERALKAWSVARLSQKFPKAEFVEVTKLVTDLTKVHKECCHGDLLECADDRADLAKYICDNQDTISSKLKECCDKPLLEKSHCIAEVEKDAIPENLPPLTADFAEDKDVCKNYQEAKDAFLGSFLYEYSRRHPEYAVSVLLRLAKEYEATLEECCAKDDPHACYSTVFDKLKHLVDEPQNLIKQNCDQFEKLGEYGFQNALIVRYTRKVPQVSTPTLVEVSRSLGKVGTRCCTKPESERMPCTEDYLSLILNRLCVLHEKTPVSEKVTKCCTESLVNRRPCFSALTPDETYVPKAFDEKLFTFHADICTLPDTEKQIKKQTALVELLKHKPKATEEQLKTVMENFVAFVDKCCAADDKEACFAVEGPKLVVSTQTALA

[1] = target: BSA fluorescein isothiocyanate conjugate (bovine, UniProt P02769 25-607, fluorescein isothiocyanate conjugate (sites not given)); assay: light absorption and fluorescence imaging of the gel
Chain of BSA fluorescein isothiocyanate conjugate (P02769 25-607): as above

B1 was tested, and the “concentration adsorbed with respect to total gel volume” value (HLT2 peptide gel) was 6.8 mg/mL and the “percent of the added protein adsorbed” value (HLT2 peptide gel) was 85%.

For B2, the “concentration adsorbed with respect to total gel volume” value (HLT2 peptide gel) was 0.1 mg/mL and the “percent of the added protein adsorbed” value (HLT2 peptide gel) was 87%.

B3: binds (bovine serum albumin); binds [1].
